Consider 8 molecules from publication PMC5389471 (Nucleic Acids Research, 2016).

Data set [1] has as its target T1, AibR (Myxococcus xanthus, UniProt Q1D4I5).
T1 sequence (Q1D4I5 1-228): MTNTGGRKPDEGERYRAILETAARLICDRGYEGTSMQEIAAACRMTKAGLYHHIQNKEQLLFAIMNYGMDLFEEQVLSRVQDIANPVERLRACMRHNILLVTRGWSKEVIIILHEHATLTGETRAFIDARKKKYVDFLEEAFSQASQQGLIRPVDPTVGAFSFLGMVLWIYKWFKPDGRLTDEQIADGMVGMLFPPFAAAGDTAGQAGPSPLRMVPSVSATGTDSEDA
Description: MST Kd with Cy5-labelled AibR. The data set is classed as binding.

Data set [2] deals with AibR, TetR-like transcriptional regulator of the AIB-operon (Myxococcus xanthus). Nature of the data set: SEC. On the technique in general: Size exclusion chromatography separates by hydrodynamic size, large species first.
For data set [3] the target is unchanged. Description: crystal structure.
The target of data set [4] is T2, AibR (UniProt Q1D4I5 1-228).
T2 sequence: T1 sequence (Q1D4I5 1-228)
Nature of the data set: EMSA. A general note: In EMSA bound probe runs differently from free probe, usually more slowly.

Data set [5] concerns the target T2, AibR. Nature of the data set: MST.
For data set [6], the target named is T2, AibR. Nature of the data set: crystal structure.

In the case of `CC(C)=CC(=O)SCCNC(=O)CCNC(=O)[C@H](O)C(C)(C)COP(=O)(O)OP(=O)(O)OC[C@H]1O[C@@H](n2cnc3c(N)ncnc32)[C@H](O)[C@@H]1OP(=O)(O)O` [3,3-dimethylacrylyl coenzyme A], the Kd (commonly the constant that tells how readily two partners part at equilibrium) on AibR [1] came out at 5800 ± 1510 nM.

Consider “AibR, TetR-like transcriptional regulator of the AIB-operon (natural protein)”, for which the stoichiometry N in data set [2] and in data set [3] was 2 each time.

B1: P3791 (dsDNA)
DNA 1: CCCCTGCCCAACCTACCGGTCGGACGGTTCCTAGCGGG
DNA 2: TCATCCGCGCCACCCGCTAGGAACCGTCCGACCGGTAGGTTGGGCAGGGG
B1: the binding result with AibR [4] is given as “binds”.

B2: Cy5 21 bp operator (dsDNA)
DNA 1: GCTACCTACCGGTCGGTAGGT
DNA 2: ACCTACCGACCGGTAGGTAGC
In the data set with AibR [5], B2 had a Kd of 2300 ± 850 nM.

B3: 16-bp palindrome (nt 2-17, G9A) (dsDNA)
DNA 1: CCTACCGATCGGTAGG
DNA 2: CCTACCGATCGGTAGG
Consider B3, for which the binding result in the data set with AibR [6] is listed as “binds”.

B4: aibR-Cy5 40 bp (dsDNA)
DNA 1: CCGCGTCGGGCGCTGCTACCTACCGGTCGGTAGGTCTCCA
DNA 2: TGGAGACCTACCGACCGGTAGGTAGCAGCGCCCGACGCGG
B4 had a Kd with AibR [4] of 233 ± 20 nM.

B5: aibR8 (dsDNA)
DNA 1: B4 DNA 1
DNA 2: TCATCCGCGCCATGGAGACCTACCGACCGGTAGGTAGCAGCGCCCGACGCGG
In the case of B5, in the data set with AibR [4], the binding result is “binds”.

B6: 3aibR12 (G12T) (dsDNA)
DNA 1: CGCTGCTACCTACCGGTCTGTAGGTCTCCA
DNA 2: TCATCCGCGCCATGGAGACCTACAGACCGGTAGGTAGCAGCG
B6: the binding result with AibR [4] is given as “no binding”.
